Laboratory results from US20200164064A1 (Hoffmann-La Roche, published 2020).

Biological target: T1, Ac-PYY(PEG3-Dig) (N-terminal acetyl; Lys 2 side chain carries PEG3-digoxigenin (digoxigenin-3-carboxymethyl on 12-amino-4,7,10-trioxadodecanoic acid); Pqa at position 3; N-methyl-Arg at position 14; C-terminal amide)
T1 construct: also called DIG-PYY; Dig-PYY
T1 peptide: IKXRHYLNWVTRQXY
Assay: size exclusion chromatography and SEC-MALS of the non-covalent complex
Experimental: After completion of the complexation reaction, the complexes were purified by size exclusion chromatography via a Superdex 200 26/60 GL column (320 ml) in 20 mM histidine, 140 mM NaCl, at pH 6.0 at a flow rate of 2.5 ml/min. […] Polypeptide and antibody were incubated for 1.5 hrs. at room temperature. The excess of polypeptide was removed by size exclusion chromatography via a Superose 6 10/300 GL column in 20 mM histidine, 140 mM NaCl, at pH 6.0 at a flow rate of 0.5 ml/min.
For SEC-MALS analysis, 100-500 μg of the respective sample was applied to a Superdex 200 10/300 GL size exclusion column with a flow rate of 0.25-0.5 ml/min with 1×PBS pH 7.4 as mobile phase. Light scattering was detected with a Wyatt miniDawn TREOS/QELS detector, the refractive index was measured with a Wyatt Optilab rEX-detector. Resulting data was analyzed using the software ASTRA (version 5.3.4.14).

B1: murine anti-digoxigenin antibody (hybridoma-derived) (antibody, mouse IgG1, V domains shown)
VH: EVQLVESGGGLVKPGGSLKLSCAVSGFTFSDYAMSWIRQTPENRLEWVASINIGATYAYYPDSVKGRFTISRDNAKNTLFLQMSSLGSEDTAMYYCARPGSPYEYDKAYYSMAYWGPGTSVTVSS
VL: DVQMTQSTSSLSASLGDRVTISCRASQDIKNYLNWYQQKPGGTVKLLIYYSSTLLSGVPSRFSGRGSGTDFSLTITNLEREDIATYFCQQSITLPPTFGGGTKLEIK
notes: also called murine hybridoma-derived antibody
B1: binds.
